In patent US20260242441A1:

Biological target: CD45 (PTPRC) phosphatase, endogenous, of Jurkat cells and human PBMC (human) (UniProt P08575)
Assay: cell-based or functional assay

Substance: soluble recombinant human BTN2A2-Fc fusion protein (baculovirus / insect cell derived)
- expansion of CD4+CD25+CD127low/-Foxp3+ Treg cells in human PBMC MLR, with or without CD45 inhibitor: 2 fold
